Results taken from the supplement of paper PMC7125110.
± gives the standard error. This sample holds only a part of the variants without activity.

B1: glmS ribozyme (parent)
chain: AUAAAAGCGCCAGAACUACAGAAAUGUAGUUGACGAGGAGGAGGUUUAUCGAAUUUUCGGCGGAUGCCUCCAAA

Experiments:
Conditions in all cases: with glucosamine-6-phosphate
[1] = variants of: B1; test: self-cleavage kobs at 40 uM GlcN6P; higher = faster cleavage; RNA array
How it was run: (§1)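 Barcoded ribozyme variants on sequenced MiSeq chips were transcribed in situ by E. coli RNA polymerase and followed at 37 °C through a hybridised Cy3 probe. Glucosamine-6-phosphate at 40 μM to 10 mM in HEPES/KCl/Mg(OAc)2 buffer was flowed in, and tiles were imaged over ~14 h. Signals were normalised to baseline and to non-cleaving reference variants, and per-tile medians were fit to one- or two-exponential decays to give kobs. Weighted Michaelis–Menten fits across concentrations gave kcat and KM.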

[2] = variants of: B1; test: self-cleavage kobs at 160 uM GlcN6P; higher = faster cleavage; RNA array
How it was run: as §1

[3] = variants of: B1; test: self-cleavage kobs at 640 uM GlcN6P; higher = faster cleavage; RNA array
How it was run: as §1

[4] = variants of: B1; test: self-cleavage kobs at 2500 uM GlcN6P; higher = faster cleavage; RNA array
How it was run: as §1

[5] = variants of: B1; test: self-cleavage kobs at 10000 uM GlcN6P; higher = faster cleavage; RNA array
How it was run: as §1

A12U G62C
self-cleavage kobs at 40 uM GlcN6P [1]: < 1e-05 s⁻¹ | self-cleavage kobs at 160 uM GlcN6P [2]: < 1e-05 s⁻¹ | self-cleavage kobs at 640 uM GlcN6P [3]: < 1e-05 s⁻¹ | self-cleavage kobs at 2500 uM GlcN6P [4]: < 1e-05 s⁻¹ | self-cleavage kobs at 10000 uM GlcN6P [5]: < 1e-05 s⁻¹

G29A A42C
self-cleavage kobs at 40 uM GlcN6P [1]: < 1e-05 s⁻¹ | self-cleavage kobs at 160 uM GlcN6P [2]: < 1e-05 s⁻¹ | self-cleavage kobs at 640 uM GlcN6P [3]: < 1e-05 s⁻¹ | self-cleavage kobs at 10000 uM GlcN6P [5]: < 1e-05 s⁻¹

A12G C16A U30G A36G
self-cleavage kobs at 40 uM GlcN6P [1]: < 1e-05 s⁻¹

G29C C34A
self-cleavage kobs at 40 uM GlcN6P [1]: < 1e-05 s⁻¹ | self-cleavage kobs at 160 uM GlcN6P [2]: < 1e-05 s⁻¹ | self-cleavage kobs at 640 uM GlcN6P [3]: < 1e-05 s⁻¹ | self-cleavage kobs at 2500 uM GlcN6P [4]: < 1e-05 s⁻¹ | self-cleavage kobs at 10000 uM GlcN6P [5]: < 1e-05 s⁻¹

A14U A33C G35C U55C
self-cleavage kobs at 40 uM GlcN6P [1]: < 1e-05 s⁻¹ | self-cleavage kobs at 10000 uM GlcN6P [5]: < 1e-05 s⁻¹

A15U G29U G60C
self-cleavage kobs at 40 uM GlcN6P [1]: < 1e-05 s⁻¹

A15G G29U U56G G63A
self-cleavage kobs at 40 uM GlcN6P [1]: < 1e-05 s⁻¹

A15C G32U A42U
self-cleavage kobs at 40 uM GlcN6P [1]: < 1e-05 s⁻¹ | self-cleavage kobs at 10000 uM GlcN6P [5]: < 1e-05 s⁻¹

G29C G32C U57G
self-cleavage kobs at 40 uM GlcN6P [1]: < 1e-05 s⁻¹

A14C A53U U69C
self-cleavage kobs at 40 uM GlcN6P [1]: 5.39e-05 ± 1.6e-05 s⁻¹

G29U G44C U46A
self-cleavage kobs at 40 uM GlcN6P [1]: < 1e-05 s⁻¹

G29C G43U C67U
self-cleavage kobs at 40 uM GlcN6P [1]: < 1e-05 s⁻¹ | self-cleavage kobs at 10000 uM GlcN6P [5]: < 1e-05 s⁻¹

A15U U30C G51C
self-cleavage kobs at 40 uM GlcN6P [1]: < 1e-05 s⁻¹

A14C G60U C71G
self-cleavage kobs at 40 uM GlcN6P [1]: < 1e-05 s⁻¹ | self-cleavage kobs at 10000 uM GlcN6P [5]: < 1e-05 s⁻¹

A12U U57C C61A
self-cleavage kobs at 40 uM GlcN6P [1]: < 1e-05 s⁻¹ | self-cleavage kobs at 640 uM GlcN6P [3]: < 1e-05 s⁻¹ | self-cleavage kobs at 10000 uM GlcN6P [5]: < 1e-05 s⁻¹

G13U G60U C68U
self-cleavage kobs at 40 uM GlcN6P [1]: < 1e-05 s⁻¹

A12U U30C C68A
self-cleavage kobs at 40 uM GlcN6P [1]: < 1e-05 s⁻¹

C19U G38A
self-cleavage kobs at 40 uM GlcN6P [1]: < 1e-05 s⁻¹

U30A A33G A48C C67A
self-cleavage kobs at 40 uM GlcN6P [1]: < 1e-05 s⁻¹ | self-cleavage kobs at 10000 uM GlcN6P [5]: < 1e-05 s⁻¹

G13U A42C A53C C68A
self-cleavage kobs at 40 uM GlcN6P [1]: < 1e-05 s⁻¹

A12U A39U C71U
self-cleavage kobs at 40 uM GlcN6P [1]: 0.000517 ± 0.00011 s⁻¹ | self-cleavage kobs at 10000 uM GlcN6P [5]: 0.0493 ± 0.014 s⁻¹

G29C U30C
self-cleavage kobs at 40 uM GlcN6P [1]: < 1e-05 s⁻¹ | self-cleavage kobs at 640 uM GlcN6P [3]: < 1e-05 s⁻¹

A15C G44U C61G C67G
self-cleavage kobs at 40 uM GlcN6P [1]: < 1e-05 s⁻¹ | self-cleavage kobs at 640 uM GlcN6P [3]: < 1e-05 s⁻¹ | self-cleavage kobs at 2500 uM GlcN6P [4]: < 1e-05 s⁻¹ | self-cleavage kobs at 10000 uM GlcN6P [5]: < 1e-05 s⁻¹

G29A G38U A39G C58A G66A
self-cleavage kobs at 40 uM GlcN6P [1]: < 1e-05 s⁻¹

G13C G51A
self-cleavage kobs at 40 uM GlcN6P [1]: < 1e-05 s⁻¹ | self-cleavage kobs at 2500 uM GlcN6P [4]: < 1e-05 s⁻¹ | self-cleavage kobs at 10000 uM GlcN6P [5]: < 1e-05 s⁻¹

G13A U46G G59U C70U
self-cleavage kobs at 40 uM GlcN6P [1]: < 1e-05 s⁻¹ | self-cleavage kobs at 2500 uM GlcN6P [4]: < 1e-05 s⁻¹

A14C C70U
self-cleavage kobs at 40 uM GlcN6P [1]: 0.000159 ± 1.4e-05 s⁻¹ | self-cleavage kobs at 160 uM GlcN6P [2]: 0.000308 ± 3.9e-05 s⁻¹ | self-cleavage kobs at 640 uM GlcN6P [3]: 0.000897 ± 9.5e-05 s⁻¹ | self-cleavage kobs at 2500 uM GlcN6P [4]: 0.00439 ± 0.0007 s⁻¹ | self-cleavage kobs at 10000 uM GlcN6P [5]: 0.00953 ± 0.0013 s⁻¹

A12G A36G G38C
self-cleavage kobs at 40 uM GlcN6P [1]: < 1e-05 s⁻¹

A15C C34A G37U G41A
self-cleavage kobs at 40 uM GlcN6P [1]: < 1e-05 s⁻¹ | self-cleavage kobs at 10000 uM GlcN6P [5]: < 1e-05 s⁻¹

A12C U54C
self-cleavage kobs at 40 uM GlcN6P [1]: 0.00107 ± 0.00014 s⁻¹ | self-cleavage kobs at 160 uM GlcN6P [2]: 0.00117 ± 0.00027 s⁻¹ | self-cleavage kobs at 640 uM GlcN6P [3]: 0.0063 ± 0.0021 s⁻¹ | self-cleavage kobs at 2500 uM GlcN6P [4]: 0.0137 ± 0.0032 s⁻¹ | self-cleavage kobs at 10000 uM GlcN6P [5]: 0.0203 ± 0.0043 s⁻¹

A12U U47G
self-cleavage kobs at 40 uM GlcN6P [1]: 0.000706 ± 0.0001 s⁻¹ | self-cleavage kobs at 2500 uM GlcN6P [4]: 0.0123 ± 0.0039 s⁻¹ | self-cleavage kobs at 10000 uM GlcN6P [5]: 0.0118 ± 0.002 s⁻¹

A15U G38A U56C
self-cleavage kobs at 40 uM GlcN6P [1]: < 1e-05 s⁻¹

C16A A42U
self-cleavage kobs at 40 uM GlcN6P [1]: < 1e-05 s⁻¹ | self-cleavage kobs at 160 uM GlcN6P [2]: < 1e-05 s⁻¹

G13A G59C
self-cleavage kobs at 40 uM GlcN6P [1]: < 1e-05 s⁻¹ | self-cleavage kobs at 160 uM GlcN6P [2]: < 1e-05 s⁻¹ | self-cleavage kobs at 10000 uM GlcN6P [5]: < 1e-05 s⁻¹

G29A G43A
self-cleavage kobs at 40 uM GlcN6P [1]: < 1e-05 s⁻¹ | self-cleavage kobs at 160 uM GlcN6P [2]: < 1e-05 s⁻¹ | self-cleavage kobs at 640 uM GlcN6P [3]: < 1e-05 s⁻¹ | self-cleavage kobs at 2500 uM GlcN6P [4]: < 1e-05 s⁻¹

G13A G44C C61A U69G
self-cleavage kobs at 40 uM GlcN6P [1]: < 1e-05 s⁻¹

A12G A48G G63A A64G
self-cleavage kobs at 40 uM GlcN6P [1]: < 1e-05 s⁻¹ | self-cleavage kobs at 10000 uM GlcN6P [5]: < 1e-05 s⁻¹

A14C U55A U56G
self-cleavage kobs at 40 uM GlcN6P [1]: 0.002 ± 0.00048 s⁻¹ | self-cleavage kobs at 640 uM GlcN6P [3]: 0.0195 ± 0.0041 s⁻¹ | self-cleavage kobs at 2500 uM GlcN6P [4]: 0.0295 ± 0.013 s⁻¹

C16G G43C
self-cleavage kobs at 40 uM GlcN6P [1]: < 1e-05 s⁻¹ | self-cleavage kobs at 640 uM GlcN6P [3]: < 1e-05 s⁻¹ | self-cleavage kobs at 10000 uM GlcN6P [5]: < 1e-05 s⁻¹

G13C G59U
self-cleavage kobs at 40 uM GlcN6P [1]: < 1e-05 s⁻¹ | self-cleavage kobs at 160 uM GlcN6P [2]: < 1e-05 s⁻¹ | self-cleavage kobs at 640 uM GlcN6P [3]: < 1e-05 s⁻¹ | self-cleavage kobs at 2500 uM GlcN6P [4]: < 1e-05 s⁻¹

C11U U49G C58U G60C
self-cleavage kobs at 40 uM GlcN6P [1]: < 1e-05 s⁻¹ | self-cleavage kobs at 2500 uM GlcN6P [4]: < 1e-05 s⁻¹

A15C A36C C71U
self-cleavage kobs at 40 uM GlcN6P [1]: < 1e-05 s⁻¹ | self-cleavage kobs at 10000 uM GlcN6P [5]: < 1e-05 s⁻¹

C11U U45G U55A C67G C68A
self-cleavage kobs at 40 uM GlcN6P [1]: 6.74e-05 ± 3.3e-05 s⁻¹ | self-cleavage kobs at 10000 uM GlcN6P [5]: 5.91e-05 ± 1.9e-05 s⁻¹

A12U C68U
self-cleavage kobs at 40 uM GlcN6P [1]: 0.000326 ± 3.4e-05 s⁻¹ | self-cleavage kobs at 160 uM GlcN6P [2]: 0.000964 ± 9.8e-05 s⁻¹ | self-cleavage kobs at 640 uM GlcN6P [3]: 0.00195 ± 0.00021 s⁻¹ | self-cleavage kobs at 2500 uM GlcN6P [4]: 0.0112 ± 0.002 s⁻¹ | self-cleavage kobs at 10000 uM GlcN6P [5]: 0.00957 ± 0.0013 s⁻¹

A12U U65A C67A
self-cleavage kobs at 40 uM GlcN6P [1]: 6.19e-05 ± 1.3e-05 s⁻¹ | self-cleavage kobs at 10000 uM GlcN6P [5]: 0.000114 ± 2e-05 s⁻¹

A14U G62C
self-cleavage kobs at 40 uM GlcN6P [1]: < 1e-05 s⁻¹ | self-cleavage kobs at 2500 uM GlcN6P [4]: < 1e-05 s⁻¹

C16G C34U G59A G60U
self-cleavage kobs at 40 uM GlcN6P [1]: < 1e-05 s⁻¹

A12G G38A G66U
self-cleavage kobs at 40 uM GlcN6P [1]: < 1e-05 s⁻¹ | self-cleavage kobs at 160 uM GlcN6P [2]: < 1e-05 s⁻¹ | self-cleavage kobs at 640 uM GlcN6P [3]: < 1e-05 s⁻¹ | self-cleavage kobs at 10000 uM GlcN6P [5]: < 1e-05 s⁻¹

A14G G35U G37U G44U C71U
self-cleavage kobs at 40 uM GlcN6P [1]: < 1e-05 s⁻¹ | self-cleavage kobs at 2500 uM GlcN6P [4]: < 1e-05 s⁻¹

A14G A33U G43A
self-cleavage kobs at 40 uM GlcN6P [1]: < 1e-05 s⁻¹ | self-cleavage kobs at 10000 uM GlcN6P [5]: < 1e-05 s⁻¹

G13A A36G C50G G66C
self-cleavage kobs at 40 uM GlcN6P [1]: 0.000105 ± 3.1e-05 s⁻¹

A15U A33C A36C G37U G40C C58U
self-cleavage kobs at 40 uM GlcN6P [1]: < 1e-05 s⁻¹ | self-cleavage kobs at 10000 uM GlcN6P [5]: < 1e-05 s⁻¹

A14G U47A C50A
self-cleavage kobs at 40 uM GlcN6P [1]: < 1e-05 s⁻¹

C16A G60U
self-cleavage kobs at 40 uM GlcN6P [1]: < 1e-05 s⁻¹ | self-cleavage kobs at 160 uM GlcN6P [2]: < 1e-05 s⁻¹ | self-cleavage kobs at 640 uM GlcN6P [3]: < 1e-05 s⁻¹ | self-cleavage kobs at 2500 uM GlcN6P [4]: < 1e-05 s⁻¹ | self-cleavage kobs at 10000 uM GlcN6P [5]: < 1e-05 s⁻¹
